Where “and” joins values, the source holds several entries; their conditions need not be identical. Identical values can stand only once.
T1: ANGPTL8 (angiopoietin-like protein 8), endogenous in human serum (human (endogenous in serum), UniProt Q6UXH0 22-198)
T1 construct: ANGPTL8, human, circulating protein of donor serum; also called ANGPLT8; source: endogenous, human serum
T1 sequence (looked up): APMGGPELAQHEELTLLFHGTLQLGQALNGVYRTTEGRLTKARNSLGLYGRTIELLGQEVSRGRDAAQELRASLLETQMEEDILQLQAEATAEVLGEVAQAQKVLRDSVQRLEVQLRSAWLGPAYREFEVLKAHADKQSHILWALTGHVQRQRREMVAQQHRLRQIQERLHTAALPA

B1: LPL (lipoprotein lipase), avidin-tagged (enzyme)
chain: DRITGGKDFRDIESKFALRTPEDTAEDTCHLIPGVTESVANCHFNHSSKTFVVIHGWTVTGMYESWVPKLVAALYKREPDSNVIVVDWLSRAQQHYPVSAGYTKLVGQDVAKFMNWMADEFNYPLGNVHLLGYSLGAHAAGIAGSLTNKKVNRITGLDPAGPNFEYAEAPSRLSPDDADFVDVLHTFTRGSPGRSIGIQKPVGHVDIYPNGGTFQPGCNIGEALRVIAERGLGDVDQLVKCSHERSVHLFIDSLLNEENPSKAYRCNSKEAFEKGLCLSCRKNRCNNMGYEINKVRAKRSSKMYLKTRSQMPYKVFHYQVKIHFSGTESNTYTNQAFEISLYGTVAESENIPFTLPEVSTNKTYSFLLYTEVDIGELLMLKLKWISDSYFSWSNWWSSPGFDIGKIRVKAGETQKKVIFCSREKMSYLQKGKSPVIFVKCHDKSLNRKSG
modifications: biotin/Avi-type tag ('avidin-tagged') for capture on streptavidin, tag omitted; N-glycosylated. The species is not printed. The BLI methods give LPL as from Sigma, whose usual LPL is purified from …
B2: C-terminal HIS-tagged ANGPTL4 (natural protein, human, UniProt Q9BY76-1 26-406, looked up)
chain: GPVQSKSPRFASWDEMNVLAHGLLQLGQGLREHAERTRSQLSALERRLSACGSACQGTEGSTDLPLAPESRVDPEVLHSLQTQLKAQNSRIQQLFHKVAQQQRHLEKQHLRIQHLQSQFGLLDHKHLDHEVAKPARRKRLPEMAQPVDPAHNVSRLHRLPRDCQELFQVGERQSGLFEIQPQGSPPFLVNCKMTSDGGWTVIQRRHDGSVDFNRPWEAYKAGFGDPHGEFWLGLEKVHSITGDRNSRLAVQLRDWDGNAELLQFSVHLGGEDTAYSLQLTAPVAGQLGATTVPPSGLSVPFSTWDQDHDLRRDKNCAKSLSGGWWFGTCSHSNLNGQYFRSIPQQRQKLKKGIFWKTWRGRYYPLQATTMLIQPMAAEAAS
B3: ANGPTL4 (angiopoietin-like protein 4), endogenous in human serum, N-terminally intact (natural protein, human (endogenous in serum), UniProt Q9BY76-1 26-406, looked up)
chain: B2 chain
notes: ANGPTL4, human, circulating protein of donor serum precipitated or captured with an N-terminal ANGPTL4 antibody; Full-length or N-terminal fragment; also called active ANGPTL4; source: endogenous, human serum
B4: recombinant ANGPTL4/8 complex (complex, human)
chain 1: B2 chain
chain 2: T1 sequence (looked up)
B5: C-terminal HIS-tagged ANGPTL3 (natural protein, human, UniProt Q9Y5C1 17-460, looked up)
chain: SRIDQDNSSFDSLSPEPKSRFAMLDDVKILANGLLQLGHGLKDFVHKTKGQINDIFQKLNIFDQSFYDLSLQTSEIKEEEKELRRTTYKLQVKNEEVKNMSLELNSKLESLLEEKILLQQKVKYLEEQLTNLIQNQPETPEHPEVTSLKTFVEKQDNSIKDLLQTVEDQYKQLNQQHSQIKEIENQLRRTSIQEPTEISLSSKPRAPRTTPFLQLNEIRNVKHDGIPAECTTIYNRGEHTSGMYAIRPSNSQVFHVYCDVISGSPWTLIQHRIDGSQNFNETWENYKYGFGRLDGEFWLGLEKIYSIVKQSNYVLRIELEDWKDNKHYIEYSFYLGNHETNYTLHLVAITGNVPNAIPENKDLVFSTWDHKAKGHFNCPEGYSGGWWWHDECGENNLNGKYNKPRAKSKPERRRGLSWKSQNGRLYSIKSTKMLIHPTDSESFE
notes: source: HEK293, transient, purified (Ni-NTA, SEC)
B6: recombinant ANGPTL3/8 complex (complex, human)
chain 1: B5 chain
chain 2: T1 sequence (looked up)

How the values were obtained:
[1] = target: ANGPTL8 (angiopoietin-like protein 8), endogenous in human serum (human (endogenous in serum)) (UniProt Q6UXH0); assay: affinity purification with mass spectrometry; immunoprecipitation of endogenous complexes from human serum with biotinylated anti-ANGPTL antibodies and streptavidin magnetic beads; trypsin/Lys-C digest; LC-MRM with spiked stable-isotope-labelled peptides; molar ratios from two peptides for each protein
[2] = target: B4; assay: BLI; Octet RED96e; avidin-tagged LPL immobilised on streptavidin biosensors; 50 nM ANGPTL protein or complex; dissociation in buffer-only wells; conditions: both partners purified
[3] = target: B1; assay: cell-based or functional assay
[4] = target: T1, ANGPTL8 (angiopoietin-like protein 8), …; assay: affinity purification with mass spectrometry; immunoprecipitation of endogenous complexes from human serum with biotinylated anti-ANGPTL antibodies and streptavidin magnetic beads; trypsin/Lys-C digest; LC-MRM with spiked stable-isotope-labelled peptides; molar ratios from two peptides for each protein; conditions: partners not purified

ANGPTL3 (angiopoietin-like protein 3), endogenous in human serum (natural protein)
stoichiometry N (ANGPTL3 per ANGPTL8 (protein ratio)) [1]: 3.4 and 3.5

B1
Kd [2]: < 0.001 nM
koff [2]: < 1e-07 s⁻¹
kon [2]: 48000 M⁻¹ s⁻¹

B2
IC50 of inhibition of LPL enzymatic activity; human LPL-stable expression cells, BODIPY-TG (EnzChek) substrate [3]: 0.29 nM
IC50 of inhibition of LPL enzymatic activity; human LPL-stable expression cells, VLDL substrate, NEFA released [3]: 0.44 nM

B3
stoichiometry N [4]: 0.8 ANGPTL4 per ANGPTL8 (protein ratio)

B4
IC50 of inhibition of LPL enzymatic activity; human LPL-stable expression cells, BODIPY-TG (EnzChek) substrate [3]: 37 nM
IC50 of inhibition of LPL enzymatic activity; human LPL-stable expression cells, VLDL substrate, NEFA released [3]: 105 nM

B5
IC50 of inhibition of LPL enzymatic activity; human LPL-stable expression cells, BODIPY-TG (EnzChek) substrate [3]: 26 nM

B6
IC50 of inhibition of LPL enzymatic activity; human LPL-stable expression cells, BODIPY-TG (EnzChek) substrate [3]: 0.14 nM

— article PMC7397750, “Angiopoietin-like protein 8 differentially regulates ANGPTL3 and ANGPTL4 during postprandial partitioning of fatty acids[S]” (Journal of Lipid Research, 2020)
